# Measured values reported in patent US20180164286A1.
# Molecular target: Small BiT (SB)-eIF4E, full-length
# Assay: cell-based or functional assay
# Chain of Small BiT (SB)-eIF4E, full-length (chain, as listed by the source limits assumed): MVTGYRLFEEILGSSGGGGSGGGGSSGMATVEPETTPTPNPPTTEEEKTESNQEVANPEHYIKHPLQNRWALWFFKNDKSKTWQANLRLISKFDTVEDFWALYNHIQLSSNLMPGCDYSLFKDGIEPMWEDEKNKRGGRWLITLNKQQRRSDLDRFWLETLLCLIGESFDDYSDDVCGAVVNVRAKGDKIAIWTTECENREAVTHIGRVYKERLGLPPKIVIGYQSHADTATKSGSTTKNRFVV
# Chain of LB-4E-BP1 - residues 29 to end (Q13541 29-118): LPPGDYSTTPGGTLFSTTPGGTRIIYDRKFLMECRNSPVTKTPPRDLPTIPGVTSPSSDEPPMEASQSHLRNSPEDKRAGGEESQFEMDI
row,"fold-change of split-luciferase luminescence, rapamycin (50 nM, 1 h) over vehicle; HEK293 cells [fold]",Substance
1,0.89,4E-BP1 with C-terminal LB at residue 85 (from UniProt Q13541 1-85)
2,0.98,4E-BP1 with C-terminal LB at residue 95 (from UniProt Q13541 1-95)
3,1.18,Full-length 4E-BP1 with C-terminal LB (from UniProt Q13541 2-118)
4,0.89,LB-4E-BP1 - residues 29 to end (from UniProt Q13541 29-118)
